The values that follow come from publication PMC9297724, “SARS-CoV-2 Epitopes following Infection and Vaccination Overlap Known Neutralizing Antibody Sites” (Research, 2022).

This test concerns the target T1, ACE2-Fc (human, UniProt Q9BYF1).
T1 construct: also called recombinant human ACE2; angiotensin converting enzyme-2; source: bought: GenScript
Description: ELISA; ACE2-Fc (4 ug/mL) captured on goat anti-human IgG Fc coated plates; biotin-labeled S481 peptide in two-fold dilutions 2000-3.90 ng/mL in 1% BSA/0.05% PBST, 1 hour at room temperature; detected with HRP-streptavidin and TMB, absorbance at 450 nm. The following applies: both partners purified. On the technique in general: An ELISA detects its analyte on a solid surface through an enzyme-linked reagent.

Where no end group is shown, it is not given here.

T1 sequence (Q9BYF1 18-740): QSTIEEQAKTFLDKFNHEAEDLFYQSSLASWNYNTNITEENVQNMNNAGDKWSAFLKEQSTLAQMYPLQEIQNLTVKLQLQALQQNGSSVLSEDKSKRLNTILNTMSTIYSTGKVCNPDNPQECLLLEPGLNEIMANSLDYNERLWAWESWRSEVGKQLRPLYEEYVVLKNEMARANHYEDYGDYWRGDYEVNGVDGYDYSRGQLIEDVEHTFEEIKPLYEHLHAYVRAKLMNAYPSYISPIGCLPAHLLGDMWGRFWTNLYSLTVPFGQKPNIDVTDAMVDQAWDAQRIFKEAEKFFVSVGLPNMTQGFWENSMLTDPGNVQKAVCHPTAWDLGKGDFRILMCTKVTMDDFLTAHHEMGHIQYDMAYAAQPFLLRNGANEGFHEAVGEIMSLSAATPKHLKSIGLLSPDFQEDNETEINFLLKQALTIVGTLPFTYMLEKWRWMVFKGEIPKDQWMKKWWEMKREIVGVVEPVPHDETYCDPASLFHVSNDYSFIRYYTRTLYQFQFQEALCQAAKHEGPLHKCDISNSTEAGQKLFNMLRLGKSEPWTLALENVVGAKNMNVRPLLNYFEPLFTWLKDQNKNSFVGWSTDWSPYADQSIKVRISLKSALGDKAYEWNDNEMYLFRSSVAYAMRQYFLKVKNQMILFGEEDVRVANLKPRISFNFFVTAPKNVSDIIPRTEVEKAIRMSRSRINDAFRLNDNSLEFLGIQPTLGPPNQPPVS

B1: S481-495 peptide (peptide)
peptide: NGVEGFNCYFPLQSY
modifications: also: biotin label, position not given here
notes: also called S481 peptide
B1: the binding result is “binds”.
